The target of series [1] is T1, Human Hsf1 wild type (human), Q00613.
T1 chain: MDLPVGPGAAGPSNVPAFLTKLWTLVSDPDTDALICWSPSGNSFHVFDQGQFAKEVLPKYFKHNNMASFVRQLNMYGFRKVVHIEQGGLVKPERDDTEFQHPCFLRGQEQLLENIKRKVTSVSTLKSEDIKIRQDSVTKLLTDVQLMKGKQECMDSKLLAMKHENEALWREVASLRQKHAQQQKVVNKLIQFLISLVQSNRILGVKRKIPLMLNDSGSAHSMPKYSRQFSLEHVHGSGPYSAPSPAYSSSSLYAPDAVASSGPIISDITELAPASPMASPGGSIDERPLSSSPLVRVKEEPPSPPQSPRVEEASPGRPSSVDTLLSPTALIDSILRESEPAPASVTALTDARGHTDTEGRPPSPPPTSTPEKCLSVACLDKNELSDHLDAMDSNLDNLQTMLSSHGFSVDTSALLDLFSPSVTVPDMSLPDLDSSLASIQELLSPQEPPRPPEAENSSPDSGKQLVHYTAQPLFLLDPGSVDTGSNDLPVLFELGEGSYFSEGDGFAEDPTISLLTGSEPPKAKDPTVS
The series is described as follows: SEC. The settings on record: remark: other sources report otherwise.

The series “SEC” concerns the molecule itself. Description: SEC. For orientation: Size exclusion chromatography separates by hydrodynamic size, large species first.

Residue numbers refer to the chain shown, from its start. Names and notes keep the numbering of the source.

B1: Human Hsf1 wild type, Q00613 1-529 (natural protein)
chain: T1 chain
For the molecule B1, the stoichiometry N (commonly a count of units in the complex or per binding partner) in series [1] stood at 3.

B2: Hsf1-S303E,S307E (natural protein)
chain: T1 chain with S303E, S307E
Regarding B2, the “stoichiometry N” value in “SEC” was 3.
